Source: patent publication US20210032299A1 (Eli Lilly, published 2021)
Starred links: 1 amine or outer side, 2 acyl side, 3 side chain; linkers in the order of their positions; H or OH if unused. Non-standard residues stand in square brackets, D forms with d. Groups on a side chain read outwards from the residue. No end group written: not given here. *: point of attachment. C20 diacid = O=C(O)CCCCCCCCCCCCCCCCCCC(=O)*; αMePhe(2-F) = C[C@](N)(Cc1ccccc1F)C(=O)O; γGlu = O=C(O)[C@H](CCC(=O)[*:2])N[*:1]; αMeF = C[C@](N)(Cc1ccccc1)C(=O)O; 4Pal = N[C@@H](Cc1ccncc1)C(=O)O; αMeL = CC(C)C[C@](C)(N)C(=O)O; AEEA = NCCOCCOCC(=O)O; Aib = CC(C)(N)C(=O)O

Tests used:
human glucagon receptor = molecular target: T1, human glucagon receptor (human, UniProt P47871 26-477); experiment: SPA, displacement of [125I]-Gcg from hGcgR membranes, 0.1% bacitracin
T1 construct: whole, on cells; Assayed as crude membranes of stably transfected HEK293 cells; also called hGcgR; GcgR
T1 sequence (P47871 26-477): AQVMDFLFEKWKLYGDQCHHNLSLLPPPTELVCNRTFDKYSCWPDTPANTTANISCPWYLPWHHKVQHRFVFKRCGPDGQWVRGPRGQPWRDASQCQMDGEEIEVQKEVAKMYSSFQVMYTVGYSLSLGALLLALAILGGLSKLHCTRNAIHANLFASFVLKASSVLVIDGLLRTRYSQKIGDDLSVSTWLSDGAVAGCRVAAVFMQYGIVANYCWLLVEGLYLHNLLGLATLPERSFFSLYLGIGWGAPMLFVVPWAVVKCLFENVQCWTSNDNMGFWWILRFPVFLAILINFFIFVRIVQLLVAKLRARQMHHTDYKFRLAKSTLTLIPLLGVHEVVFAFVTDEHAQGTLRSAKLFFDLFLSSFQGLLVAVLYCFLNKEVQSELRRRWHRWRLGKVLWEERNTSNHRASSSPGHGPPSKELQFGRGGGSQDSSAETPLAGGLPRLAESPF
Outline: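 Binding buffer: 25 mM HEPES pH 7.4, 2.5 mM CaCl₂, 1 mM MgCl₂, 0.003% Tween-20, protease inhibitors without EDTA. Counted by scintillation after 12 h incubation/settling at room temperature. Four-parameter nonlinear fit; Kᵢ given as geometric mean ± SEM of independent replicates run on different days.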

human GLP-1 receptor = molecular target: T2, human GLP-1 receptor (human, UniProt P43220 24-463); experiment: SPA, displacement of [125I]-GLP-1 from hGLP-1R membranes, 0.1% bacitracin
T2 construct: whole, on cells; Assayed as crude membranes of stably transfected HEK293 cells; also called hGLP1R; hGLP-1R
Outline: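 Binding buffer: 25 mM HEPES pH 7.4, 2.5 mM CaCl₂, 1 mM MgCl₂, 0.1% bacitracin, 0.003% Tween-20, protease inhibitors without EDTA. Four-parameter nonlinear regression; Kᵢ given as geometric mean ± SEM, n = independent replicates run on different days.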

[1] = molecular target: T3, human glucose-dependent insulinotropic polypeptide (GIP) receptor (human, UniProt P48546 22-466); experiment: SPA, displacement of [125I]-GIP from hGIPR membranes, 0.1% bacitracin
T3 construct: whole, on cells; Assayed as crude membranes of stably transfected CHO cells; also called hGIPR; human GIP receptor
T3 sequence (looked up): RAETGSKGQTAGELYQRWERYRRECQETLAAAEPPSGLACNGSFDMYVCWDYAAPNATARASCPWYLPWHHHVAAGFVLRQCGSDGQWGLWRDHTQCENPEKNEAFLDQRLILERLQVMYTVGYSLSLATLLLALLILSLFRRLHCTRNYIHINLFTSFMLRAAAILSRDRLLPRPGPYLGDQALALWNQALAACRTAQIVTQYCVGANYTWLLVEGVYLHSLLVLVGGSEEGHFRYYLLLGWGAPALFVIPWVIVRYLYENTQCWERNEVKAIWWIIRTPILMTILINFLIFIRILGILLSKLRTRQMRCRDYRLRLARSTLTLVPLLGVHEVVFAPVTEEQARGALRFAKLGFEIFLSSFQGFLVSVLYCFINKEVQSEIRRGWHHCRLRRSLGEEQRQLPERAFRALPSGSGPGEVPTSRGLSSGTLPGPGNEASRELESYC

B1: Example 69 (peptide)
peptide: Y[Aib]EGTFISDYSI[αMeL]LDKK([AEEA-AEEA-γGlu-C20 diacid])HQ[Aib]DFVEYLLEGGPSSGAPPPS-NH2
modifications: N-terminus assumed
SMILES: CC[C@H](C)[C@H](NC(=O)[C@H](Cc1ccccc1)NC(=O)[C@@H](NC(=O)CNC(=O)[C@H](CCC(=O)O)NC(=O)C(C)(C)NC(=O)[C@@H](N)Cc1ccc(O)cc1)[C@@H](C)O)C(=O)N[C@@H](CO)C(=O)N[C@@H](CC(=O)O)C(=O)N[C@@H](Cc1ccc(O)cc1)C(=O)N[C@@H](CO)C(=O)N[C@H](C(=O)N[C@@](C)(CC(C)C)C(=O)N[C@@H](CC(C)C)C(=O)N[C@@H](CC(=O)O)C(=O)N[C@@H](CCCCN)C(=O)N[C@@H](CCCCNC(=O)COCCOCCNC(=O)COCCOCCNC(=O)CC[C@H](NC(=O)CCCCCCCCCCCCCCCCCCC(=O)O)C(=O)O)C(=O)N[C@@H](Cc1c[nH]cn1)C(=O)N[C@@H](CCC(N)=O)C(=O)NC(C)(C)C(=O)N[C@@H](CC(=O)O)C(=O)N[C@@H](Cc1ccccc1)C(=O)N[C@H](C(=O)N[C@@H](CCC(=O)O)C(=O)N[C@@H](Cc1ccc(O)cc1)C(=O)N[C@@H](CC(C)C)C(=O)N[C@@H](CC(C)C)C(=O)N[C@@H](CCC(=O)O)C(=O)NCC(=O)NCC(=O)N1CCC[C@H]1C(=O)N[C@@H](CO)C(=O)N[C@@H](CO)C(=O)NCC(=O)N[C@@H](C)C(=O)N1CCC[C@H]1C(=O)N1CCC[C@H]1C(=O)N1CCC[C@H]1C(=O)N[C@@H](CO)C(N)=O)C(C)C)[C@@H](C)CC
Q: What does the source list for B1?
A: Ki (human glucagon receptor): 114 nM; Ki (human GLP-1 receptor): 144 nM; Ki [1]: 0.0406 nM

B2: Example 60 (peptide)
peptide: Y[Aib]EGT[αMeF]ISDYSI[αMeL]LDKK([AEEA-AEEA-γGlu-C20 diacid])HQ[Aib]EFVE[4Pal]LLAQGPSSGAPPPS-NH2
modifications: N-terminus assumed
SMILES: CC[C@H](C)[C@H](NC(=O)[C@H](CO)NC(=O)[C@H](Cc1ccc(O)cc1)NC(=O)[C@H](CC(=O)O)NC(=O)[C@H](CO)NC(=O)[C@@H](NC(=O)[C@](C)(Cc1ccccc1)NC(=O)[C@@H](NC(=O)CNC(=O)[C@H](CCC(=O)O)NC(=O)C(C)(C)NC(=O)[C@@H](N)Cc1ccc(O)cc1)[C@@H](C)O)[C@@H](C)CC)C(=O)N[C@@](C)(CC(C)C)C(=O)N[C@@H](CC(C)C)C(=O)N[C@@H](CC(=O)O)C(=O)N[C@@H](CCCCN)C(=O)N[C@@H](CCCCNC(=O)COCCOCCNC(=O)COCCOCCNC(=O)CC[C@H](NC(=O)CCCCCCCCCCCCCCCCCCC(=O)O)C(=O)O)C(=O)N[C@@H](Cc1c[nH]cn1)C(=O)N[C@@H](CCC(N)=O)C(=O)NC(C)(C)C(=O)N[C@@H](CCC(=O)O)C(=O)N[C@@H](Cc1ccccc1)C(=O)N[C@H](C(=O)N[C@@H](CCC(=O)O)C(=O)N[C@@H](Cc1ccncc1)C(=O)N[C@@H](CC(C)C)C(=O)N[C@@H](CC(C)C)C(=O)N[C@@H](C)C(=O)N[C@@H](CCC(N)=O)C(=O)NCC(=O)N1CCC[C@H]1C(=O)N[C@@H](CO)C(=O)N[C@@H](CO)C(=O)NCC(=O)N[C@@H](C)C(=O)N1CCC[C@H]1C(=O)N1CCC[C@H]1C(=O)N1CCC[C@H]1C(=O)N[C@@H](CO)C(N)=O)C(C)C
Q: Which results are given for B2?
A: Ki (human glucagon receptor): 26.2 nM; Ki (human GLP-1 receptor): 51.4 nM; Ki [1]: 0.039 nM

B3: Example 61 (peptide)
peptide: Y[Aib]EGT[αMeF]ISDYSI[αMeL]LDKK([AEEA-AEEA-γGlu-C20 diacid])HQ[Aib]EFVE[4Pal]LLATGPSSGAPPPS-NH2
modifications: N-terminus assumed
SMILES: CC[C@H](C)[C@H](NC(=O)[C@H](CO)NC(=O)[C@H](Cc1ccc(O)cc1)NC(=O)[C@H](CC(=O)O)NC(=O)[C@H](CO)NC(=O)[C@@H](NC(=O)[C@](C)(Cc1ccccc1)NC(=O)[C@@H](NC(=O)CNC(=O)[C@H](CCC(=O)O)NC(=O)C(C)(C)NC(=O)[C@@H](N)Cc1ccc(O)cc1)[C@@H](C)O)[C@@H](C)CC)C(=O)N[C@@](C)(CC(C)C)C(=O)N[C@@H](CC(C)C)C(=O)N[C@@H](CC(=O)O)C(=O)N[C@@H](CCCCN)C(=O)N[C@@H](CCCCNC(=O)COCCOCCNC(=O)COCCOCCNC(=O)CC[C@H](NC(=O)CCCCCCCCCCCCCCCCCCC(=O)O)C(=O)O)C(=O)N[C@@H](Cc1c[nH]cn1)C(=O)N[C@@H](CCC(N)=O)C(=O)NC(C)(C)C(=O)N[C@@H](CCC(=O)O)C(=O)N[C@@H](Cc1ccccc1)C(=O)N[C@H](C(=O)N[C@@H](CCC(=O)O)C(=O)N[C@@H](Cc1ccncc1)C(=O)N[C@@H](CC(C)C)C(=O)N[C@@H](CC(C)C)C(=O)N[C@@H](C)C(=O)N[C@H](C(=O)NCC(=O)N1CCC[C@H]1C(=O)N[C@@H](CO)C(=O)N[C@@H](CO)C(=O)NCC(=O)N[C@@H](C)C(=O)N1CCC[C@H]1C(=O)N1CCC[C@H]1C(=O)N1CCC[C@H]1C(=O)N[C@@H](CO)C(N)=O)[C@@H](C)O)C(C)C
Q: For B3, which Ki (human glucagon receptor) is on record?
A: 80.4 nM

Q: And the Ki (human GLP-1 receptor)?
A: 135 nM

Q: What about the Ki [1] of the same binder?
A: 0.0665 nM

B4: Example 74 (peptide)
peptide: YXEGTXISDYSIXLDKKHQXDFVEXLLEGGPSSGAPPPS
modifications: Aib2; Iva6; αMeL13; K17((2-[2-(2-Amino-ethoxy)-ethoxy]-acetyl)2-(γ-Glu)-CO-(CH2)18-CO2H); Aib20; 4-Pal25; C-terminal amide
Q: With B4 as the binder, how does the Ki (human glucagon receptor) read?
A: 511 nM

Q: And the Ki (human GLP-1 receptor)?
A: 395 nM

Q: And the Ki [1]?
A: 0.0287 nM

B5: Example 88 (peptide)
peptide: YXEGTXISDYSIXLDKKHQXDFVEXLLEAGPSSGAPPPS
modifications: Aib2; Iva6; αMeL13; K17((2-[2-(2-Amino-ethoxy)-ethoxy]-acetyl)2-(γ-Glu)-CO-(CH2)18-CO2H); Aib20; 4-Pal25; C-terminal amide
Q: Which results are given for B5?
A: Ki (human glucagon receptor): 788 nM; Ki (human GLP-1 receptor): 261 nM; Ki [1]: 0.083 nM

B6: Example 62 (peptide)
peptide: Y[Aib]EGT[αMeF]ISDYSI[αMeL]LDKK([AEEA-AEEA-γGlu-C20 diacid])HQ[Aib]EFVE[4Pal]LLAAGPSSGAPPPS-NH2
modifications: N-terminus assumed
SMILES: CC[C@H](C)[C@H](NC(=O)[C@H](CO)NC(=O)[C@H](Cc1ccc(O)cc1)NC(=O)[C@H](CC(=O)O)NC(=O)[C@H](CO)NC(=O)[C@@H](NC(=O)[C@](C)(Cc1ccccc1)NC(=O)[C@@H](NC(=O)CNC(=O)[C@H](CCC(=O)O)NC(=O)C(C)(C)NC(=O)[C@@H](N)Cc1ccc(O)cc1)[C@@H](C)O)[C@@H](C)CC)C(=O)N[C@@](C)(CC(C)C)C(=O)N[C@@H](CC(C)C)C(=O)N[C@@H](CC(=O)O)C(=O)N[C@@H](CCCCN)C(=O)N[C@@H](CCCCNC(=O)COCCOCCNC(=O)COCCOCCNC(=O)CC[C@H](NC(=O)CCCCCCCCCCCCCCCCCCC(=O)O)C(=O)O)C(=O)N[C@@H](Cc1c[nH]cn1)C(=O)N[C@@H](CCC(N)=O)C(=O)NC(C)(C)C(=O)N[C@@H](CCC(=O)O)C(=O)N[C@@H](Cc1ccccc1)C(=O)N[C@H](C(=O)N[C@@H](CCC(=O)O)C(=O)N[C@@H](Cc1ccncc1)C(=O)N[C@@H](CC(C)C)C(=O)N[C@@H](CC(C)C)C(=O)N[C@@H](C)C(=O)N[C@@H](C)C(=O)NCC(=O)N1CCC[C@H]1C(=O)N[C@@H](CO)C(=O)N[C@@H](CO)C(=O)NCC(=O)N[C@@H](C)C(=O)N1CCC[C@H]1C(=O)N1CCC[C@H]1C(=O)N1CCC[C@H]1C(=O)N[C@@H](CO)C(N)=O)C(C)C
Q: For B6, which Ki (human glucagon receptor) is on record?
A: 31.3 nM

Q: And the Ki (human GLP-1 receptor)?
A: 47.6 nM

Q: What about the Ki [1] of the same binder?
A: 0.0414 nM

B7: Example 51 (peptide)
peptide: Y[Aib]EGT[αMePhe(2-F)]ISDYSI[αMeL]LDKK([AEEA-AEEA-γGlu-C20 diacid])HQ[Aib]DFVE[4Pal]LLAGGPSSGAPPPS-NH2
modifications: N-terminus assumed
SMILES: CC[C@H](C)[C@H](NC(=O)[C@H](CO)NC(=O)[C@H](Cc1ccc(O)cc1)NC(=O)[C@H](CC(=O)O)NC(=O)[C@H](CO)NC(=O)[C@@H](NC(=O)[C@](C)(Cc1ccccc1F)NC(=O)[C@@H](NC(=O)CNC(=O)[C@H](CCC(=O)O)NC(=O)C(C)(C)NC(=O)[C@@H](N)Cc1ccc(O)cc1)[C@@H](C)O)[C@@H](C)CC)C(=O)N[C@@](C)(CC(C)C)C(=O)N[C@@H](CC(C)C)C(=O)N[C@@H](CC(=O)O)C(=O)N[C@@H](CCCCN)C(=O)N[C@@H](CCCCNC(=O)COCCOCCNC(=O)COCCOCCNC(=O)CC[C@H](NC(=O)CCCCCCCCCCCCCCCCCCC(=O)O)C(=O)O)C(=O)N[C@@H](Cc1c[nH]cn1)C(=O)N[C@@H](CCC(N)=O)C(=O)NC(C)(C)C(=O)N[C@@H](CC(=O)O)C(=O)N[C@@H](Cc1ccccc1)C(=O)N[C@H](C(=O)N[C@@H](CCC(=O)O)C(=O)N[C@@H](Cc1ccncc1)C(=O)N[C@@H](CC(C)C)C(=O)N[C@@H](CC(C)C)C(=O)N[C@@H](C)C(=O)NCC(=O)NCC(=O)N1CCC[C@H]1C(=O)N[C@@H](CO)C(=O)N[C@@H](CO)C(=O)NCC(=O)N[C@@H](C)C(=O)N1CCC[C@H]1C(=O)N1CCC[C@H]1C(=O)N1CCC[C@H]1C(=O)N[C@@H](CO)C(N)=O)C(C)C
Q: How did the Ki (human glucagon receptor) turn out when B7 was run?
A: 26.7 nM

Q: And the Ki (human GLP-1 receptor)?
A: 54.1 nM

Q: And the Ki [1]?
A: 0.0386 nM
